Reference: patent US20060014193A1, “Nucleoside phosphoramidates and nucleoside phosphoramidases” (priority 2004, published 2006)

B1: E. coli hinT (Escherichia coli K-12) (protein)
chain: MAEETIFSKIIRREIPSDIVYQDDLVTAFRDISPQAPTHILIIPNILIPTVNDVSAEHEQALGRMITVAAKIAEQEGIAEDGYRLIMNTNRHGGQEVYHIHMHLLGGRPLGPMLAHKGL
B2: hHINT1 (Homo sapiens) (protein)
chain: MADEIAKAQVARPGGDTIFGKIIRKEIPAKIIFEDDRCLAFHDISPQAPTHFLVIPKKHISQISVAEDDDESLLGHLMIVGKKCAADLGLNKGYRMVVNEGSDGGQSVYHVHLHVLGGRQMHWPPG

Key:
[1] = substrate: NCCc1c[nH]c2ccccc12; experiment: Phosphoramidase fluorescence assay; assay type: biochemical, E. coli; details: other: Table 5; pH 7.2; 25.0 °C
[2] = substrate: NCCc1c[nH]c2ccccc12; experiment: Phosphoramidase fluorescence assay; assay type: biochemical, human; details: other: Table 5; pH 7.2; 25.0 °C
Experimental: The fluorescence of tryptophan (ex, 280 nm, em 360 nm) can be quenched when covalently attached to a nucleoside monophosphate, and nucleoside phosphoramidates of D- and L-tryptophan and tryptamine are excellent fluorescent substrates for hHINT1. Typically, after measurement of initial substrate fluorescence, hHINT1 was added to the reaction solution (HEPES buffer, pH 7.2, 25° C.) and the change in fluorescence over 2 min was determined by converting the slope into μM of substrate hydrolyzed per μg of enzyme per min with a standard curve. […] Based on the generation of chimeric polypeptides between the hHINTI and the hinT of E. coli, the preference for D enantiomers by the human HINT1 polypeptide is likely conferred by the C-terminus amino acids (e.g., the C-terminus 5, 6, 5 7, 8, 9, 10, or 11 amino acids) of the hHINT1 enzyme. […] In addition, both D-tryptophan phosphoramidates of cytosine and uridine were substrates. Initial rates were determined 10 during the first 10-20% of the reaction for variable substrate concentrations. The Michaelis-Menten constants, kcat and Km, for selected nucleoside phosphosphoramidates have been determined. (Table 4). As observed in the initial screening assay, for phosphoramidates containing L-tryptophan, hHINT1 has a 7-fold greater preference for AMP phosphoramidates of L-tryptophan than GMP.

Row | Protein | Km [1] | kcat [1] | kcat/Km [1] | Km [2] | kcat [2] | kcat/Km [2]
1 | B1 | 30.1 ± 2.39 µM | 0.45 ± 0.04 s⁻¹ | 15000 M⁻¹ s⁻¹ |  |  | 
2 | B2 |  |  |  | 1.74 ± 0.22 µM | 0.97 ± 0.11 s⁻¹ | 558000 M⁻¹ s⁻¹
